From patent US20220306729A1 (published 2022)

Columns and labels:
[1] = biological target: ZIKV envelope domain III (ZEDIII), polyhistidine-AviTag, made in HEK-293-6E cells; experiment: ELISA
Human FcRn = experiment: SPR

Row | Binder | EC50 [1] | Kd (Human FcRn)
1 | Z010 (MEX105_88) (antibody, V domains shown) VH: EVQLLESGGGLVQPGGSLRLSCAASGFTFSNYAMAWVRQAPGKGLEWVSLIYSGDDSTYYADFVKGRFTISRHNSKNTLSLQMNSLRAEDTAIYYCVKDRGTGWSSIVHWGQGTLVTVSS VL: DIQMTQSPSTLSASVGDRVTITCRASQTISNWLAWYQQKPGKAPKLLIYQASSLESGVPSRFSGSGSGTEFTLTISSLQPDDFATYYCQQYSTYWTFGQGTKVEIK | > 0.4 µg/mL | –
2 | Z012 (antibody, V domains shown) VH: QVQLVQSGAEVKKSGASVKVSCKASGYSFTTNYIHWVRQAPGQGPEWMGIINPRGGSTTYAQKFQGRVLMTSDTSTSTVYMELSSLRSEDRAVYYCARGKNHQTTVAVLSWYYGMDVWGQGTTVTVSS VL: DIQMTQSPSSVSASVGDRVTITCRASQGISSWLAWYQQKPGKAPKLLISAASSLQSGVPSRFSGSGSGTDFTLTISNLQPEDFATYFCQQANSFPYTFGQGTKLEIK | 0.2 µg/mL | –
3 | GRLR/LS (antibody) heavy: EVQLLESGGGLVQPGGSLRLTCATSGFTFRDYAMSWVRQAPGKGLEWVSSYSGIDDSTYYADSVKGRFTISRDNSKSTLSLHMNSLRAEDSALYFCAKDRGPRGVGELFDSWGQGTLVTVSSASTKGPSVFPLAPSSKSTSGGTAALGCLVKDYFPEPVTVSWNSGALTSGVHTFPAVLQSSGLYSLSSVVTVPSSSLGTQTYICNVNHKPSNTKVDKRVEPKSCDKTHTCPPCPAPELLRGPSVFLFPPKPKDTLMISRTPEVTCVVVDVSHEDPEVKFNWYVDGVEVHNAKTKPREEQYNSTYRVVSVLTVLHQDWLNGKEYKCKVSNKARPAPIEKTISKAKGQPREPQVYTLPPSREEMTKNQVSLTCLVKGFYPSDIAVEWESNGQPENNYKTTPPVLDSDGSFFLYSKLTVDKSRWQQGNVFSCSVLHEALHSHYTQKSLSLSPG light: DIQMTQSPSTLSASVGDRVTITCRASQSISKWLAWYQQKPGKAPKLLIYTTSTLKSGVPSRFSGSGSGTEFTLTISSLQPDDFATYYCQHFYSVPWTFGQGTKVEIKRTVAAPSVFIFPPSDEQLKSGTASVVCLLNNFYPREAKVQWKVDNALQSGNSQESVTEQDSKDSTYSLSSTLTLSKADYEKHKVYACEVTHQGLSSPVTKSFNRGEC | – | 5.2 nM
4 | Z037 (antibody, V domains shown) VH: QVQLQESGPGLVKPSETLSLTCSVSGYFISSGHYWGWIRQSPGKGLEWIASIYQSGSKFQTGNTYYNPSLESRVTISMDTSKNQFSLKLSSVTAADTAVYFCARDARSRSWDRTGFFGPWGQGILVTVSS VL: EIVLTQSPGTLSLSPGERATLSCRASQSLSSSFLAWYQQKPGQSPRLLIYGTSSRDTGIPDRFSGSGSGTDFTLTISRLEPEDSAVYYCQQYGSSWGTFGQGTKLEIK | > 0.4 µg/mL | –
